In patent US20130336885A1 (Genentech, published 2013):
Each block holds one binder with its values, some of them ahead of it.

Tests used:
[1] = target: T1, gD epitope-tagged human LgR5 (full-length) expressed on transfected 293 cells (human, UniProt O75473 22-907); assay: Scatchard analysis, 125I-labelled antibody competed by unlabelled antibody on stably transfected 293 cells
T1 construct: also called gD-tagged human LgR5
T1 sequence: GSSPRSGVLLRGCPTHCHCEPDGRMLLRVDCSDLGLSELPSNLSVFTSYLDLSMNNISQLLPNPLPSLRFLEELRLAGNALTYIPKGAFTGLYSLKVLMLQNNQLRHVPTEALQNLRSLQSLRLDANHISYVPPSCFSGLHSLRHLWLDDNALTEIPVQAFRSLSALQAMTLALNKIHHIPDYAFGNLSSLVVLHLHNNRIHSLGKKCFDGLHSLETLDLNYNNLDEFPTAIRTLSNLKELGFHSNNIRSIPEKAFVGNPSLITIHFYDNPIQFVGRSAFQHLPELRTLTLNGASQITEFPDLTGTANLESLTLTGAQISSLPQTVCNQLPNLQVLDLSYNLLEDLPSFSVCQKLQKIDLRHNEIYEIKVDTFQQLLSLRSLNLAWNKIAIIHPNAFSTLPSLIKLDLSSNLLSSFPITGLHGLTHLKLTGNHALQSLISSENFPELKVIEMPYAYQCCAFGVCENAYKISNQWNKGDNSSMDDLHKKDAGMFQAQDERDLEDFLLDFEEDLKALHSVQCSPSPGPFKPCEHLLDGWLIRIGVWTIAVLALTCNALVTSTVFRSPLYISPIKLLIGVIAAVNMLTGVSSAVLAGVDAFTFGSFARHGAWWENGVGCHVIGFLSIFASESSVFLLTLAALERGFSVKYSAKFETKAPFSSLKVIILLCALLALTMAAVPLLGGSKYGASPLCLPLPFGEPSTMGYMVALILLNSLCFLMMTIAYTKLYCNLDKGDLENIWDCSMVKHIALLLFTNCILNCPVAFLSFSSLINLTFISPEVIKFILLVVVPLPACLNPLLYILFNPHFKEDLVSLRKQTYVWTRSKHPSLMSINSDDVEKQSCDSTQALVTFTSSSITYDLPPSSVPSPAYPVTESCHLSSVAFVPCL
Procedure: (§1) Scatchard analysis was performed following standard procedures (Holmes et al., Science 256:1205-1210 (1992)) to determine the relative binding affinities of YW353, ch8E11 and hu8E11v2 antibodies.
(§2) Anti-LgrS antibodies were [I¹²⁵] labeled using the indirect Iodogen method. […] Competition assay mixtures of 50 μL volume containing a fixed concentration of [I¹²⁵] labeled antibody and decreasing concentrations of serially diluted, unlabeled antibody were placed into 96-well plates. 293 cells stably expression human, rat, or mouse LgrS were cultured in growth media at 37° C. in 5% CO₂. Cells were detached from the flask using Sigma Cell Dissociation Solution and were washed with binding buffer, which consisted of Dulbecco's Modified Eagle Medium (DMEM) with 2% fetal bovine serum (FBS), 50 mM HEPES (pH 7.2) and 0.1% sodium azide. The washed cells were added to the 96 well plates at a density of 250,000 cells in 0.2 mL of binding buffer. The final concentration of the labeled antibody in each well was […]. The final concentration of the unlabeled antibody in the competition assay ranged from 500 nM through ten 2-fold diluation steps to a 0 nM buffer-only assay. Competition assays were carried out in triplicate. Competition assays were incubated for 2 hours at room temperature. After the 2-hour incubation, the competition assays were transferred to a Millipore Multiscreen filter plate (Billerica, Mass.) and washed 4 times with binding buffer to separate the free from bound [I¹²⁵] labeled antibody. The filters were counted on a Wallac Wizard 1470 gamma counter (PerkinElmer Life and Analytical Sciences Inc.; Wellesley, Mass.). The binding data was evaluated using NewLigand software (Genentech), which uses the fitting algorithm of Munson and Robard to determine the binding affinity of the antibody (Munson and Robard 1980)

[2] = target: T2, gD epitope-tagged LgR5 22-123 (amino acids 22-123 of SEQ ID NO: 67) with a C-terminal GPI anchor on … (human, UniProt O75473 22-123, C-terminal GPI anchor); assay: FACS on transiently transfected 293 cells
T2 sequence: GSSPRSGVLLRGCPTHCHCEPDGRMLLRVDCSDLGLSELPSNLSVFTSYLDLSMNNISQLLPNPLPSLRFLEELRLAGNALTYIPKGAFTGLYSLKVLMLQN

[3] = target: T3, gD epitope-tagged mouse LgR5 expressed on stably transfected 293 cells (mouse, UniProt Q9Z1P4 22-907); assay: Scatchard analysis, 125I-labelled antibody competed by unlabelled antibody on stably transfected 293 cells
T3 construct: also called gD-tagged mouse LgR5
T3 sequence: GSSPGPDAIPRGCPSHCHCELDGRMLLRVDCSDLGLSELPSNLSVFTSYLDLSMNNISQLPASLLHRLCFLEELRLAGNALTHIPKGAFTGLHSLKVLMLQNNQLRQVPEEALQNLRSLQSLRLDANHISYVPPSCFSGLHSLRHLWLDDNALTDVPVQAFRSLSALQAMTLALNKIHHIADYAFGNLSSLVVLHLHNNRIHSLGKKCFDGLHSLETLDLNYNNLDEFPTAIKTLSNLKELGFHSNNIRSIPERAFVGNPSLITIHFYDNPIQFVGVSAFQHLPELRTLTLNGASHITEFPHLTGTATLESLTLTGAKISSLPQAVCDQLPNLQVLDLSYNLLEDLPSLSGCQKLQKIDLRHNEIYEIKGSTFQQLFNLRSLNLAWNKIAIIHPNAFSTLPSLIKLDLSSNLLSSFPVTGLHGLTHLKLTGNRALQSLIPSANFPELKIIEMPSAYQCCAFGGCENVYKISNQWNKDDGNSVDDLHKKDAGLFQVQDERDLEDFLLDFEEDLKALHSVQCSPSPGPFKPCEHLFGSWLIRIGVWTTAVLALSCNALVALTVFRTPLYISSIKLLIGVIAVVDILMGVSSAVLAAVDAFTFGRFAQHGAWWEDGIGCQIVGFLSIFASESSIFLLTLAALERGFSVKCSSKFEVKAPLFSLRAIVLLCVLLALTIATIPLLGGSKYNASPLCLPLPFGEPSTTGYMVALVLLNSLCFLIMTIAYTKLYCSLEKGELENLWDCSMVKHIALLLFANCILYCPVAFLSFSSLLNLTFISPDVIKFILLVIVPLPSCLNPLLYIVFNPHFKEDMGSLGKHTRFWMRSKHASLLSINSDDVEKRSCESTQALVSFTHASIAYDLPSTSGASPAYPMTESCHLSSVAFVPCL
Procedure: as §1, §2

[4] = target: T3, gD epitope-tagged mouse LgR5 expressed …; assay: Scatchard analysis, competition of 125I-labeled with unlabeled antibody on 293 cells stably expressing mouse LgR5
Procedure: as §1
as §2, with “The final concentration of the unlabeled antibody in the competition assay ranged from 500 nM through ten 2-fold diluation steps to a 0 nM buffer-only assay. Competition assays were carried out in triplicate. Competition assays were incubated for 2 hours at room temperature. After the 2-hour incubation, the competition assays were transferred to a Millipore Multiscreen filter plate (Billerica, Mass.) and washed 4 times with binding buffer to separate the free from bound [I¹²⁵] labeled antibody.” left out

Kd [1]: 200 pM
B1: human antibody YW353 (antibody, human IgG1, kappa, V domains shown)
VH: EVQLVESGGGLVQPGGSLRLSCAASGFTFTSYSISWVRQAPGKGLEWVAEIYPPGGYTDYADSVKGRFTISADTSKNTAYLQMNSLRAEDTAVYYCAKARLFFDYWGQGTLVTVSS
VL: DIQMTQSPSSLSASVGDRVTITCRASQDVSTAVAWYQQKPGKAPKLLIYSASFLYSGVPSRFSGSGSGTDFTLTISSLQPEDFATYYCQQSYTTPPTFGQGTKVEIKR
notes: also called huYW353

binding result [2]: no binding (tested: 10 µg/ml)
Kd [1]: 400 pM
Kd [3]: 200 pM
B2: chimeric monoclonal antibody 8E11 (antibody, human IgG1, V domains shown)
VH: QVQLQQSGTELMKPGASVKISCKATGYTFSAYWIEWIKQRPGHGLEWIGEILPGSDSTDYNEKFKVKATFSSDTSSNTVYIQLNSLTYEDSAVYYCARGGHYGSLDYWGQGTTLKVSS
VL: NIVLTQSPASLAVSLGQRATISCRASESVDNYGNSFMHWYQQKPGQPPKLLIYLASNLESGVPARFSGSGSRTDFTLTIDPVEADDAATYYCQQNYEDPFTFGSGTKVEIKR
notes: also called ch8E11; chimeric 8E11

binding result [2]: no binding (tested: 10 µg/ml)
Kd [3]: 500 pM
Kd [4]: 600 pM
B3: humanized monoclonal antibody 8E11.v2 (antibody, human IgG1, kappa, V domains shown)
VH: EVQLVQSGAEVKKPGASVKVSCKASGYTFSAYWIEWVRQAPGQGLEWIGEILPGSDSTDYNEKFKVRATFTSDTSTSTVYLELSSLRSEDTAVYYCARGGHYGSLDYWGQGTLVTVSS
VL: DIVMTQSPDSLAVSLGERATINCRASESVDNYGNSFMHWYQQKPGQPPKLLIYLASNLESGVPDRFSGSGSGTDFTLTISSLQAEDVAVYYCQQNYEDPFTFGQGTKVEIKR
notes: It was assessed as an IgG; also called hu8E11.v2; hu8E11v2
